Experimental findings from article PMC6001692, “Chlamydial virulence factor TarP mimics talin to disrupt the talin‐vinculin complex” (Febs Letters, 2018) are described below.

Where no end group is shown, it is not given here.

Test [1] concerns the target T1, FAK‐FAT domain (residues 941–1090) (Mus musculus, UniProt P34152).
T1 construct: the FAK‐FAT domain (residues 941–1090); 6xHis (cleaved yes); made in house; host or cells: E. coli BL21 (DE3)
T1 sequence (P34152 904-1052 limits assumed): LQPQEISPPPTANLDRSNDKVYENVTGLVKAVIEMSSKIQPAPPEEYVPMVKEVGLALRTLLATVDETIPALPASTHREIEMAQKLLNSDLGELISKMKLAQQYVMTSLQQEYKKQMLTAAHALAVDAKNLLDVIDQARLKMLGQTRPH
As to the kind of experiment: Fluorescence polarisation assay, fluorescein-labelled LD-motif peptides titrated with FAK-FAT domain. The class given is binding. The source says:
Chicken vinculin Vd1 (residues 1–259), murine talin R10 (residues 1815–1973), and the FAK‐FAT domain (residues 941–1090) were cloned into a pET151 vector (Invitrogen) and expressed in E .coli BL21 (DE3) cells cultured in LB. Standard nickel‐affinity chromatography was used to purify the His‐tagged recombinant proteins as described previously 15. The proteins were further purified using anion‐exchange chromatography following cleavage of the 6xHis‐tag with TEV protease. Protein concentrations were determined using the respective extinction coefficients at 280 nm.
Peptides with either a C‐ or N‐terminal cysteine were synthesised by GLBiochem (China).
Peptides were coupled to a thiol‐reactive fluorescein dye via the terminal cysteine. Stock solutions were made in phosphate‐buffered saline (PBS; 137 mM NaCl, […], […], […], pH 7.4), 1 mM TCEP and 0.05% Triton X‐100. Excess dye was removed using a PD‐10 desalting column (GE Healthcare, Chicago, IL, USA). […] Fluorescent polarisation (FP) measurements were recorded on a BMGLabTech CLARIOstar plate reader at room temperature and analysed using GraphPad Prism. K d values were calculated with nonlinear curve fitting using a one‐site total binding model. […]
On the technique in general: Polarisation of emitted light reports the rotation of a fluorescent probe.

The target in test [2] is T2, vinculin Vd1 (residues 1–259) (Gallus gallus, UniProt P12003).
T2 construct: Chicken vinculin Vd1 (residues 1–259); 6xHis (cleaved yes); made in house; host or cells: E. coli BL21 (DE3)
As to the kind of experiment: Fluorescence polarisation assay, fluorescein-labelled peptides titrated with vinculin head Vd1. The test is classed as binding, Chicken. The note with it: FP; negative control; Kd ND in Fig. 1D.
Procedure: Peptides were coupled to a thiol‐reactive fluorescein dye via the terminal cysteine. Stock solutions were made in phosphate‐buffered saline (PBS; 137 mM NaCl, 27 mM KCl, 100 mM Na2HPO4, 18 mM KH2PO4, pH 7.4), 1 mM TCEP and 0.05% Triton X‐100. Excess dye was removed using a PD‐10 desalting column (GE Healthcare, Chicago, IL, USA). Titrations were performed in PBS using a constant 1 μM concentration of fluorescein‐coupled peptide with increasing concentration of protein; final volume 100 μL in a black 96‐well plate. Fluorescent polarisation (FP) measurements were recorded on a BMGLabTech CLARIOstar plate reader at room temperature and analysed using GraphPad Prism. K d values were calculated with nonlinear curve fitting using a one‐site total binding model.
In this assay, synthetic VBS peptides (Materials and methods) were fluorescently labelled with fluorescein and titrated against an increasing concentration of Vd1.

The target in test [3] is FAK‐FAT domain (residues 941–1090). The test can be described thus: fluorescence polarisation; 1 μM fluorescein-coupled peptide constant, increasing concentration of protein; PBS, room temperature, 96-well plate; one-site total binding fit; triplicate.
For test [4], the target named is T3, Chicken vinculin Vd1 (residues 1–259) (chicken, UniProt P12003 1-259).
T3 construct: also called vinculin head; vinculin head domain
T3 sequence (looked up): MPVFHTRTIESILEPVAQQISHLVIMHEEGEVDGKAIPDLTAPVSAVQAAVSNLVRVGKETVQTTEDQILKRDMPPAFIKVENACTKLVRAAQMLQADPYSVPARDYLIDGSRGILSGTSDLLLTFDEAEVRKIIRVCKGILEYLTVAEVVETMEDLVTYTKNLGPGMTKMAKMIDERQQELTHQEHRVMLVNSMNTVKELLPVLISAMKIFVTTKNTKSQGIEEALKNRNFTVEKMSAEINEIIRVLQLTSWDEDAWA
The description is as above. As to conditions: both partners purified.

Test [5] deals with T3, Chicken vinculin Vd1 (residues 1–259). The test can be described thus: SEC-MALS; analytical gel filtration, Superdex-75, 4 °C, 50 mM Tris pH 7.5, 150 mM NaCl, 2 mM DTT; 100 μM of each protein at 1:1 (talin:Vd1), incubated at 37 °C for 30 min. As to conditions: both partners purified. (SEC sorts molecules by how far they enter the pores of the column.)

Turning to `CC(C)C[C@H](NC(=O)[C@H](CCC(=O)O)NC(=O)[C@H](CC(C)C)NC(=O)[C@H](CC(C)C)NC(=O)[C@H](CC(C)C)NC(=O)[C@H](CCCNC(=N)N)NC(=O)[C@H](CC(=O)O)NC(=O)[C@H](CC(C)C)NC(=O)[C@H](CCC(=O)O)NC(=O)[C@H](CO)NC(=O)[C@H](CC(C)C)NC(=O)[C@H](CC(N)=O)NC(=O)[C@@H](N)CS)C(=O)N[C@@H](CC(N)=O)C(=O)O` [Paxillin LD2, reference compound], the equilibrium dissociation constant (Kd) in test [1] (FP, 1 μM fluorescein-coupled peptide, increasing FAK-FAT, PBS, room temperature, ± SE, read-out: Dissociation constant Kd for binding to FAK-FAT) came out at 9.01 µM. With “EGAEGLEHLLPQLRSHLDDAFDQQGN‐C [TarP LD, synthetic LD-motif peptide of C. caviae TarP, residues 655–680, with C-terminal cysteine]”, the “Binding to FAK-FAT by FP (in words)” value in test [1] (fluorescein-labelled peptide, Kd ND in Fig. 4B) is reported as “no increase in polarisation”. Also, in test [2], the “Interaction with Vd1 (in words)” value is given as “does not interact with Vd1”.

B1: Pax_LD2 peptide (paxillin residues 141–153) with N-terminal cysteine, fluorescein-coupled (peptide)
peptide: CNLSELDRLLLELN
modifications: fluorescein (thiol-reactive dye) coupled via the N-terminal cysteine
In turn, B1 yielded a Kd in test [3] of 9 µM.

B2: TarP_VBS1 peptide (C. caviae residues 850–868) with C-terminal cysteine, fluorescein-coupled (peptide)
peptide: LLEAARNTTTMLSKTLSKVC(fluorescein)
notes: source: synthetic peptide (GLBiochem)
Consider B2, for which, in test [4], binding was put at a Kd of 1.29 µM.

B3: mTal1_VBS36 peptide (talin residues 1622–1656) with N-terminal cysteine, fluorescein-coupled (peptide)
peptide: C(fluorescein)VNPRDPPRWSVLAGHSRTVSDSIKKLITSMRDKAP
notes: also called talin VBS36; source: synthetic peptide (GLBiochem)
In test [4], B3 showed a Kd of 1.03 µM.

B4: murine talin R10 (residues 1815–1973) (domain or fragment, UniProt P26039 1815-1973, looked up)
chain: NEAASAAGVVGGMVDSITQAINQLDEGPMGDPEGSFVDYQTTMVRTAKAIAVTVQEMVTKSNTSPEELGPLANQLTSDYGRLASQAKPAAVAAENEEIGAHIKHRVQELGHGCSALVTKAGALQCSPSDVYTKKELIECARRVSEKVSHVLAALQAGNR
notes: also called talin rod domain R10
B4: in test [5], the “stoichiometry N” value was determined as 1.

A word on the Kd: it is the concentration at which binding is half-saturated. By stoichiometry N is commonly meant the number of molecules, sites or subunits per partner or assembly.
